The target of series [1] is T1, U153 integrase (Listeria phage U153) (UniProt Q8LTD8).
T1 sequence: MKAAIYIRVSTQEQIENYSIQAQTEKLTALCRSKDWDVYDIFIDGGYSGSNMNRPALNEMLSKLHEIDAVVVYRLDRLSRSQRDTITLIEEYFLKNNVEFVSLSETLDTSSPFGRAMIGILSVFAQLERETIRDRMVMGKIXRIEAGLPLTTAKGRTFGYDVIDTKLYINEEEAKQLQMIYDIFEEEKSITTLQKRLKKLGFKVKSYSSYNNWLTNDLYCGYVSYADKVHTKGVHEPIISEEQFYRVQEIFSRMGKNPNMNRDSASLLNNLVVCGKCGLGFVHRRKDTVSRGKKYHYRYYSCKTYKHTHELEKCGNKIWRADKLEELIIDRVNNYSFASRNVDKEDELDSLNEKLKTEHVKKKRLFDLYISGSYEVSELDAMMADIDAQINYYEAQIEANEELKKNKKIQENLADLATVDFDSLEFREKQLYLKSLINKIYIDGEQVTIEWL
As to the kind of experiment: cell_activity.

The target of series [2] is T2, PSA integrase (Listeria phage PSA) (UniProt Q8W5Y3).
T2 sequence: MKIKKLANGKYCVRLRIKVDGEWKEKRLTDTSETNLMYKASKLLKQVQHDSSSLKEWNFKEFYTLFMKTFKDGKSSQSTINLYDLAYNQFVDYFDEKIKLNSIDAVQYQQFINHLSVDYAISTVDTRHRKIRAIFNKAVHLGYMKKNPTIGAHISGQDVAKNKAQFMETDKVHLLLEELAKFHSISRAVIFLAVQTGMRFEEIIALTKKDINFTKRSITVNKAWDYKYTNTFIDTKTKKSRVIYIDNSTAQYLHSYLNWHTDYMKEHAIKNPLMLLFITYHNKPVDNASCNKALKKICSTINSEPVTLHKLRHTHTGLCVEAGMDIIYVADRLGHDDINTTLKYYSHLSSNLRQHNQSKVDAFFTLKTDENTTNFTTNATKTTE
Briefly: cell_activity. Particulars: pPL2 in 10403S and EGDe; attB' side unrelated to 4b, attB side 96-97% identical.

comK-attBB' displayed an activity (integrants per donor cell) in series [1] (pPL1 integration at comK in DP-L4056, similar frequency in SLCC-5764 and 4b strains, PCR confirmed) of 0.0002.

In series [1] (attPP' partner on pPL1, stable for 100 generations), U153 attPP' registered an activity (integrants per donor cell) of 0.0002.

“tRNAArg-attBB' serotype 1/2 (10403S, EGDe)” had an activity (integrants per donor cell) in series [2] of 0.0002.

Source of the values: patent US7425449.
